According to PMC8437434, “Hsp40s play complementary roles in the prevention of tau amyloid formation” (eLife, 2021):

Molecular target: T1, full-length tau (2N4R), C322S (UniProt P10636-8 1-441, C322S)
T1 construct: microtubule-associated protein tau, longest splice isoform 2N4R, with C322S; 15N-labelled for NMR; also called 15N-tau; source: E. coli BL21 (DE3), purified (Ni-NTA, tag cleaved, Superdex 75); not shown: His6, N-terminal, cleaved
Test: NMR titration; 1H-15N HSQC-TROSY of 200 µM 15N-tau, tau^4R or tau^4R P301S/P301L alone and with twofold excess (400 µM) of chaperone; intensity ratios I/I0; 50 mM HEPES pH 7.0, 50 mM KCl, 1 mM DTT, 25 °C; no heparin
Conditions: both partners purified

T1 sequence (P10636 other isoform, or with tags, fused parts or gaps C322S | C322S | C322S C322S): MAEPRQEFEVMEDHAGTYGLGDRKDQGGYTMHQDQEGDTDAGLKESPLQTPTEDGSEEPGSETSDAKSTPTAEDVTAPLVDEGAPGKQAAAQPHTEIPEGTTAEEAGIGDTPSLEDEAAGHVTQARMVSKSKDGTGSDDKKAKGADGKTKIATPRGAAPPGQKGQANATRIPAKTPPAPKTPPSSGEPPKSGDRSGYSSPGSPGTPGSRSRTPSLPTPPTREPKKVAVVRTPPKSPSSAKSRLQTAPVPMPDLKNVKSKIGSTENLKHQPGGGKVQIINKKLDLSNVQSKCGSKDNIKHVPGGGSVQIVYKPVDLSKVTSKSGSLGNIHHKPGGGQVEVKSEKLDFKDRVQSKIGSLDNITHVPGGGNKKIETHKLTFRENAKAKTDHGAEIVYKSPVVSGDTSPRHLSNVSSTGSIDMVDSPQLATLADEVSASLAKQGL

B1: DNAJA2 (natural protein)
chain: not shown
notes: DNAJA2, class A J-domain protein; homodimer (90 kDa dimer as printed); also called class A JDP; Hsp40; source: E. coli BL21 (DE3), purified (Ni-NTA, tag cleaved, Superdex 200); not shown: His6, N-terminal, cleaved
binding result: binds
